Assay results from the supplement of paper PMC12764529.
± gives the half width of the 95% confidence interval.

test: folding stability dG unfold from trypsin proteolysis; higher = more stable
Summary of the method: (§1)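 Mini-proteins designed to be under 80 residues and free of cysteine were carried in a PA-tagged cDNA display construct and digested with trypsin and with chymotrypsin. Each protease was applied at 11 threefold-diluted concentrations, alongside a no-protease condition, before sequencing. K50 came from Bayesian fitting of the sequencing counts, and unfolding free energy was obtained by comparing it with a sequence-predicted unfolded-state K50 and a shared folded-state K50, for each protease separately or for both together. Designs were retained only if their AlphaFold2 dimer inter-PAE exceeded 15.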

Sequence	folding stability dG unfold
SAGGSAGGSAGPPNVKLTFTIMIMEMKMEPPPDGNPKMEMVMVPIEIEITAPPGDEITAISAGGSAGGSAGG [r11_174_TrROS]	2.41 ± 0.2 kcal/mol
SAGGSAGGSAMLYRITVRNADGEKLEIVVEMSEDEVRALAEELRKAGYEVRVEPIPEGEEPSAGGSAGGSAG [r3_35_TrROS_Hall]	4.89 ± 0.21 kcal/mol
SAGGSAGGSAGMTLKVEVKVKVKVFDENGKLVREEEVTVEVEIELEPAPELRFLSEEELKSAGGSAGGSAGG [r17_325_TrROS_Hall]	1.24 ± 0.053 kcal/mol
SAGGRTLEFNMKSNNPNMMENEISKLLRELGFPPGFDIEVNPERDPNGRYTYPITITVDNPELADKISAGGS [r8_85_TrROS]	0.106 ± 0.43 kcal/mol
SAGGSAGGSPPNWKTIPITFWVDPGDVEEFANILRDLGLEIEDVEVEPNPDGHVWVTITIVIPSAGGSAGGS [r12_905_TrROS]	2.57 ± 0.17 kcal/mol
SAGGSAGGSAGNDVINKKYTYTITETTEEKTPTDDPVSTTITTPIEITVKAPKDEVVIPDSAGGSAGGSAGG [r11_174_JUSTAS]	-0.6 ± 0.15 kcal/mol
SANMPPGDWKPINIKVKIERPGGKPEFEYPIYKHPDGMIMIFIHFPIPPGAYKIKIEFPGNGKENEFKFSAG [r14_280_TrROS]	1.52 ± 0.058 kcal/mol
SAGGSAMTITVTEETDPNTDRKTTTVSLSPGVSEEVLEELKAEAEKKGAKLTVYPEEGVVTVVTPESAGGSA [r15_542_JUSTAS]	0.0631 ± 0.052 kcal/mol
SAGGMVLVSTPSNRGASSEILKEAAEAISAGDPDKAAELAREYFQKNFPPDEPIKIEIFVDPPVEPESAGGS [r8_48_TrMRF]	0.476 ± 0.011 kcal/mol
SAGGSAGGKRKIEIHIIIPPGMPPEWRKKAIEIAKWFAKTLAQENNREVEIKIEIFVLDGMPPWSAGGSAGG [r6_204_TrROS]	2.82 ± 0.19 kcal/mol
SAGGSATLPEKILEELAAAGYPLEYVTITEVKTEERPGSVVVTVKVEYKVPNSDRIETVNLTVPRPSAGGSA [r15_863_JUSTAS]	1.71 ± 0.032 kcal/mol
SAGGMVTTESTKPYLLPNGTKATLTTTTTLYPDGTVVSPTTFTLTFPDGSSTTTTTTTVTTLASGALSAGGS [r16_505_JUSTAS]	0.836 ± 0.048 kcal/mol
SAGGGSMAASSVTSEEKPLPDGSSLSIPEITRPDNVATLTVEYYDPKTGTKYTFTLTIPISPDDTVTLSAGG [r13_190_JUSTAS]	1.79 ± 0.086 kcal/mol
SAGGSAGGSAGMVLPRPDGSLVVITEHPDGTVTVTFAPPDKPITIEVPKEEPVDIRVFPLSAGGSAGGSAGG [r11_164_TrMRF]	1.39 ± 0.043 kcal/mol
SAGGSAGGMKVLATTEDGEVYLFDLSEFDLSFEEWLNLGEEELAELLRKAFPEKEITLELVEEPSAGGSAGG [r6_164_TrMRF]	2.5 ± 0.076 kcal/mol
MTEEEVRAEAEARARALAEERGVEITAVDIDGEVEQVVETTTRPTPDGRPVTETTSKKIKTKVRATLRPPRS [r1_91_JUSTAS]	-0.107 ± 0.27 kcal/mol

Sequence	folding stability dG unfold
SAGGSAGGSAGKLRVRIPPRLRERLRKRKRVRLRLRVEEREVRDEDGNLRRVRRLEIELESAGGSAGGSAGG [r11_113_TrROS_Hall]	0.819 ± 0.15 kcal/mol
SAGGSAGGSTAKEIADKLGFDNVEIKPTKPVEQRKDPNGKWRRQYVYTIKIRNPDGREWTIPISAGGSAGGS [r12_221_TrROS]	0.626 ± 0.093 kcal/mol
SAGGSAGGSAEPPEVRIRLEVRLLPDGTLEVTAEIEVDGKTYRITVTVDAKTNEIVSVSIEPSAGGSAGGSA [r18_459_TrROS_Hall]	4.44 ± 0.36 kcal/mol
SAGGSAGGMVIKIITNAPSLEEAEEIAKRVAAELRERFGGPDVEIVLDVEVIPLPPVPTEDGKPSAGGSAGG [r6_182_TrMRF]	1.38 ± 0.053 kcal/mol
SAGGSAGGSAGKFKLKIKEVHWRENPNGYEQVKVEIKIPGEEKKIWFPPGMSIDQILDQLSAGGSAGGSAGG [r11_1056_TrROS]	0.415 ± 0.081 kcal/mol
SAGGSGMTETIKLSDPKNGLSVTVTVTFDPATGSKSVTITVESSEEAKEKVKALLEEKGLPVTVTSSAGGSA [r2_30_JUSTAS]	0.716 ± 0.063 kcal/mol
SAGDVKIDIHYDEDGYIRVTVPYKSPHEAREEADELARWLAKQFGPKNIDINVEPHPNGMLVIRIPIKKSAG [r5_772_TrROS]	2.17 ± 0.099 kcal/mol
SAGGSAGGSAMTVTITHDVPPDVSVTVTVTSNNKKIPVSTPSRAASATIPSSEVSSLEIVPSSAGGSAGGSA [r18_170_JUSTAS]	-0.362 ± 0.29 kcal/mol
SAGGKVKVTVTPDGTVTIEFEAESVEEAIKAAKAFLEEAGFEVESIPVEVPPDGTVKVTAKIKPKNASAGGS [r8_253_TrMRF]	1.33 ± 0.06 kcal/mol
SAGGSAGGMLTFTFSLSEIPPYPSGSLSLEEVKKRMEPILRKLLGRKDVKIKVESLPDGTIRVTVESAGGSA [r15_562_JUSTAS]	3.95 ± 0.25 kcal/mol
SAGGSAPVTEGPNSITVTRDLDPSESEEEVRALAEEILAALPADVSVSVEFDPETGTATITITFPGSAGGSA [r15_210_JUSTAS]	2.31 ± 0.054 kcal/mol
SAGGNIQIHYNPDWGVIRITYMFPSPTEAEDFIKKLLPPGYKIEPIEVERNPDGYYQVSIEIRLPKGASAGG [r13_338_TrROS]	2.82 ± 0.12 kcal/mol
SIKIRKEKTPNGYYEITFEFPFPDGWPMTIEANVQVDPENGKVKVDIKIEDPNLPPEFKEFIENFEFKVPSA [r9_715_TrROS]	1.75 ± 0.079 kcal/mol
SAGGSMAKILEIIPEEKKIVVEFEGDPKTFPLDEIEEIRIEPEKGYLTIKVGDKVYTIPLDDPNDFSAGGSA [r2_48_TrMRF]	0.579 ± 0.027 kcal/mol
SAGGGMSTTTETTIRIYVKDPQGNPVFVAELTVTVTTSPSGEVTIHLPPEFLKALPPNYTIAKIEVTSAGGS [r16_295_JUSTAS]	3.94 ± 0.21 kcal/mol

test: folding stability dG unfold from chymotrypsin proteolysis; higher = more stable
Summary of the method: as §1

Sequence	folding stability dG unfold
SAGGSAGGSAGPPNVKLTFTIMIMEMKMEPPPDGNPKMEMVMVPIEIEITAPPGDEITAISAGGSAGGSAGG [r11_174_TrROS]	4 ± 0.44 kcal/mol
SAGGSAGGSAMLYRITVRNADGEKLEIVVEMSEDEVRALAEELRKAGYEVRVEPIPEGEEPSAGGSAGGSAG [r3_35_TrROS_Hall]	4.79 ± 0.11 kcal/mol
SAGGSAGGSAGMTLKVEVKVKVKVFDENGKLVREEEVTVEVEIELEPAPELRFLSEEELKSAGGSAGGSAGG [r17_325_TrROS_Hall]	2.63 ± 0.057 kcal/mol
SAGGRTLEFNMKSNNPNMMENEISKLLRELGFPPGFDIEVNPERDPNGRYTYPITITVDNPELADKISAGGS [r8_85_TrROS]	-0.00324 ± 0.54 kcal/mol
SAGGSAGGSPPNWKTIPITFWVDPGDVEEFANILRDLGLEIEDVEVEPNPDGHVWVTITIVIPSAGGSAGGS [r12_905_TrROS]	3.54 ± 0.1 kcal/mol
SAGGSAGGSAGNDVINKKYTYTITETTEEKTPTDDPVSTTITTPIEITVKAPKDEVVIPDSAGGSAGGSAGG [r11_174_JUSTAS]	0.644 ± 0.25 kcal/mol
SANMPPGDWKPINIKVKIERPGGKPEFEYPIYKHPDGMIMIFIHFPIPPGAYKIKIEFPGNGKENEFKFSAG [r14_280_TrROS]	2.84 ± 0.09 kcal/mol
SAGGSAMTITVTEETDPNTDRKTTTVSLSPGVSEEVLEELKAEAEKKGAKLTVYPEEGVVTVVTPESAGGSA [r15_542_JUSTAS]	0.311 ± 0.065 kcal/mol
SAGGMVLVSTPSNRGASSEILKEAAEAISAGDPDKAAELAREYFQKNFPPDEPIKIEIFVDPPVEPESAGGS [r8_48_TrMRF]	0.744 ± 0.063 kcal/mol
SAGGSAGGKRKIEIHIIIPPGMPPEWRKKAIEIAKWFAKTLAQENNREVEIKIEIFVLDGMPPWSAGGSAGG [r6_204_TrROS]	3.71 ± 0.076 kcal/mol
SAGGSATLPEKILEELAAAGYPLEYVTITEVKTEERPGSVVVTVKVEYKVPNSDRIETVNLTVPRPSAGGSA [r15_863_JUSTAS]	1.68 ± 0.029 kcal/mol
SAGGMVTTESTKPYLLPNGTKATLTTTTTLYPDGTVVSPTTFTLTFPDGSSTTTTTTTVTTLASGALSAGGS [r16_505_JUSTAS]	0.563 ± 0.089 kcal/mol
SAGGGSMAASSVTSEEKPLPDGSSLSIPEITRPDNVATLTVEYYDPKTGTKYTFTLTIPISPDDTVTLSAGG [r13_190_JUSTAS]	1.97 ± 0.06 kcal/mol
SAGGSAGGSAGMVLPRPDGSLVVITEHPDGTVTVTFAPPDKPITIEVPKEEPVDIRVFPLSAGGSAGGSAGG [r11_164_TrMRF]	0.324 ± 0.087 kcal/mol
SAGGSAGGMKVLATTEDGEVYLFDLSEFDLSFEEWLNLGEEELAELLRKAFPEKEITLELVEEPSAGGSAGG [r6_164_TrMRF]	3.3 ± 0.047 kcal/mol
